According to the supplement of paper PMC9876800:

Tested on: peptide library, one residue held at a place counted from the S/T acceptor
Test: relative phosphorylation of the sub-library (ratio to the mean residue at this position); higher = residue favoured
Outline: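 Each biotinylated degenerate peptide sub-library fixed one residue at one position around a central Ser/Thr and was incubated with a purified recombinant kinase, a human or orthologue construct, in 384-well plates. The 90 min reactions, under kinase-specific conditions, contained 50 μM peptide and 50 μM ATP spiked with γ-32P-ATP. Phosphorylation was read by phosphorimaging spots on streptavidin membranes and quantifying them by densitometry. Relative sub-library phosphorylation expresses each value as a ratio to the mean residue at that position.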

Sequence of MAPKAPK3, construct: Full length, human (Q16644 whole entry, looked up): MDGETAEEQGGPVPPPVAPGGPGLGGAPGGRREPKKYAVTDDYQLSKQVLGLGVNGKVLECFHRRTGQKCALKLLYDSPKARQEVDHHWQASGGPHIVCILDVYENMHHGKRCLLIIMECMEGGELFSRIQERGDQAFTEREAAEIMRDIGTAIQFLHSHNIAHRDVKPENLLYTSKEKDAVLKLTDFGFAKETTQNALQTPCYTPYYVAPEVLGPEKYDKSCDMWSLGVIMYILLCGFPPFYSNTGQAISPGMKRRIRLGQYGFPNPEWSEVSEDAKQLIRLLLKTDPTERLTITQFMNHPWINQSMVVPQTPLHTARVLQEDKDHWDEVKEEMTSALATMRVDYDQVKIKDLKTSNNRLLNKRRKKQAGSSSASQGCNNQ
Sequence of MAPK14, construct: Full length, human (Q16539 whole entry, looked up): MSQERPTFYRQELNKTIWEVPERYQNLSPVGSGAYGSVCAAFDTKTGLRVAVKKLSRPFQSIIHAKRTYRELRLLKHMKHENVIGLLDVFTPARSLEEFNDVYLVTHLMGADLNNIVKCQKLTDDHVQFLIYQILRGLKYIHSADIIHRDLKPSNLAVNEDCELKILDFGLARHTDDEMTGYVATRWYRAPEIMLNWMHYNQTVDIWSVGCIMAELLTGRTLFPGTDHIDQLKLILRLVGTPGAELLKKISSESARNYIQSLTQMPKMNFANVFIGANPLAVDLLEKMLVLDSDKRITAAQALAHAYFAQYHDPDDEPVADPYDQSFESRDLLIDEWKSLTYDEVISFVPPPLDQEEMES
Sequence of MAPKAPK5, construct: Full length, human (Q8IW41 whole entry, looked up): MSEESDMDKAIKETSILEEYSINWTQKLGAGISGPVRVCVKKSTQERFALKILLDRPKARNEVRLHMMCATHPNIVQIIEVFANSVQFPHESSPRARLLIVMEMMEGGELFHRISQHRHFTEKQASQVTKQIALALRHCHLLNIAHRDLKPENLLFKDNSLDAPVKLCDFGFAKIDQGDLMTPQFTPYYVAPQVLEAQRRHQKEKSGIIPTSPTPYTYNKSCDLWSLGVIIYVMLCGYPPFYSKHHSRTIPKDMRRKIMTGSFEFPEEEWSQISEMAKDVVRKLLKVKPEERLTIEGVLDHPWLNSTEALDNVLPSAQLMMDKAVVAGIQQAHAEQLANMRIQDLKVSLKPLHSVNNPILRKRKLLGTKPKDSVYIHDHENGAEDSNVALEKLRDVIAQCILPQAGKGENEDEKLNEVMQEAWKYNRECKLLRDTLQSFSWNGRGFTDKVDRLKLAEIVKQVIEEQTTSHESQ

MAPK14, construct: Full length, human (from UniProt Q16539)
relative phosphorylation
Conditions	at +1	at +2	at +3	at +4	at -1	at -2	at -3	at -4	at -5
A fixed	1.53	1.11	1.23	0.76	1.11	1.26	1.35	1.05	0.942
D fixed	0.147	0.674	0.665	0.783	0.616	0.425	0.833	0.947	0.761
E fixed	0.135	0.652	0.727	0.67	0.84	0.319	1.22	0.981	0.935
F fixed	0.403	0.864	1	1.47	0.795	0.59	0.769	1.01	0.997
G fixed	1.24	1.3	1.17	1.05	1.35	0.91	1.67	1.16	1.18
H fixed	0.346	1.11	0.846	0.89	1.06	0.499	1.01	0.859	1
I fixed	0.337	1.29	1.53	0.996	0.649	0.93	0.957	1.16	1.12
K fixed	0.34	1.33	0.654	1.06	0.922	0.594	0.908	1.09	1.24
L fixed	0.412	1.12	0.877	1.07	1.39	1.43	0.87	1.21	1.16
M fixed	0.408	0.967	0.926	1.11	1.55	1.14	1.07	1.15	1.05
N fixed	0.344	0.797	0.611	0.716	0.809	0.548	0.887	0.837	0.785
P fixed	9.61	0.697	1.64	0.88	1.14	4.82	1.27	1.03	1.27
Q fixed	0.277	0.903	0.673	0.895	1.1	0.686	0.892	0.898	0.871
R fixed	0.424	1.44	0.926	1.21	1.42	0.752	1.11	0.959	1.03
V fixed	0.366	1.09	1.43	0.801	0.755	1.09	0.727	0.767	0.757
W fixed	0.37	0.751	1.1	1.42	0.637	0.507	0.64	0.945	0.746
Y fixed	0.31	0.914	0.998	1.21	0.866	0.492	0.807	0.934	1.16
pThr fixed	0.432	1.1	0.892	0.516	0.341	0.619	1.02	0.89	0.939
pTyr fixed	0.397	0.625	1.16	0.674	0.632	0.435	0.834	0.943	1.33

MAPKAPK3, construct: Full length, human (from UniProt Q16644)
relative phosphorylation
Conditions	at +1	at +2	at +3	at +4	at -1	at -2	at -3	at -4	at -5
A fixed	0.674	1.05	1.17	1.02	0.861	1.42	0.885	1.11	0.659
D fixed	0.406	1.06	1.47	1.21	0.649	0.266	0.193	0.495	0.203
E fixed	0.637	0.868	1.52	1.02	0.573	0.386	0.222	0.764	0.187
F fixed	1.04	0.749	0.722	0.727	1.05	0.806	0.438	0.896	1.97
G fixed	0.54	0.872	1.5	1.26	0.579	0.968	0.614	0.88	0.453
H fixed	1.26	1.31	1.05	1.01	1.23	0.903	1.34	1.12	0.689
I fixed	1.21	0.813	0.518	0.711	0.838	0.462	0.211	0.795	1.31
K fixed	1.07	0.94	0.807	1.14	1.3	0.927	2.05	1.79	0.646
L fixed	1.05	0.794	0.645	0.823	1.24	1.04	0.314	1.12	1.71
M fixed	1.31	0.826	0.675	0.84	1.21	1.5	0.487	1.26	1.2
N fixed	1.08	1.26	1.13	1.16	1.13	0.857	0.682	0.76	0.361
P fixed	0.229	1.27	1.82	1.54	1.22	0.638	0.883	0.627	1.15
Q fixed	1.21	1.13	1.01	1.15	0.973	2.92	0.919	1.13	0.688
R fixed	1.7	1.26	0.851	1.04	1.23	1.6	6.2	1.64	1.41
V fixed	1.45	0.974	0.707	0.758	0.99	0.724	0.252	0.872	1.13
W fixed	0.878	0.795	0.66	0.919	0.716	0.786	0.796	0.804	2.1
Y fixed	1.24	1.02	0.745	0.67	1.21	0.788	0.521	0.931	1.15
pThr fixed	0.99	0.759	0.687	1.1	0.449	0.345	0.244	0.464	0.333
pTyr fixed	1.79	0.934	1.05	0.812	0.732	0.334	0.233	0.572	0.563

MAPKAPK5, construct: Full length, human (from UniProt Q8IW41)
relative phosphorylation
Conditions	at +1	at +2	at +3	at +4	at -1	at -2	at -3	at -4	at -5
A fixed	0.697	1.12	1.09	0.728	0.899	1.63	0.654	0.868	0.78
D fixed	0.317	1.3	0.82	1.17	0.706	0.282	0.157	0.486	0.433
E fixed	0.474	1.29	0.757	1.01	0.557	0.442	0.171	0.864	0.313
F fixed	1.17	0.746	1.48	0.96	0.965	0.679	0.639	1.11	1.79
G fixed	0.396	0.947	0.903	1.05	0.427	1.07	0.5	0.658	0.527
H fixed	1.13	1.11	1.01	1.17	1.22	0.742	1.14	1.03	0.763
I fixed	1.38	0.921	0.694	0.883	1.18	0.522	0.228	0.834	1.24
K fixed	0.641	0.729	0.646	0.917	0.966	0.769	0.754	1.23	0.777
L fixed	1.02	0.704	0.819	0.794	1.33	1.16	0.521	1.19	1.59
M fixed	1.15	1	1.05	0.912	1.8	1.77	0.816	1.27	1.27
N fixed	0.552	1.08	0.687	0.986	1.09	0.903	0.341	0.642	0.633
P fixed	0.338	0.956	1.46	1.25	0.529	0.292	0.322	0.512	0.748
Q fixed	1.13	1.23	0.672	0.898	0.935	2.85	0.696	0.93	0.62
R fixed	0.931	0.972	0.602	0.968	1.38	1.55	7.97	1.32	1.28
V fixed	1.84	1.24	1.1	0.768	1.04	0.608	0.267	0.813	0.894
W fixed	2.06	0.716	1.48	1.41	0.822	0.861	0.935	1.82	1.89
Y fixed	1.78	0.942	1.73	1.14	1.17	0.862	0.885	1.43	1.47
pThr fixed	0.688	0.697	0.784	1.49	0.462	0.387	0.267	0.599	0.61
pTyr fixed	2.04	1.96	1.2	1.41	1.28	1.36	0.297	1.26	0.914
